B2: IL-11Δ10/IL-11Rα_(D1-D3) binary complex (complex, human)
chain 1: SPDPRAELDSTVLLTRSLLADTRQLAAQLRDKFPADGDHNLDSLPTLAMSAGALGALQLPGVLTRLRADLLSYLRHVQWLRRAGGSSLKTLEPELGTLQARLDRLLRRLQLLMSRLALPQPPPDPPAPPLAPPSSAWGGIRAAHAILGGLHLTLDWAVRGLLLLKTRL
chain 2: SSPCPQAWGPPGVQYGQPGRSVKLCCPGVTAGDPVSWFRDGEPKLLQGPDSGLGHELVLAQADSTDEGTYICQTLDGALGGTVTLQLGYPPARPVVSCQAADYENFSCTWSPSQISGLPTRYLTSYRKKTVLGADSQRRSPSTGPWPCPQDPLGAARCVVHGAEFWSQYRINVTEVNPLGASTRLLDVSLQSILRPDPPQGLRVESVPGYPRRLRASWTYPASWPCQPHFLLKFRLQYRPAQHPAWSTVEPAGLEEVITDAVAGLPHAVRVSARDFLDAGTWSTWSPEAWGTPSTGT
notes: IL-11, human, IL-11Δ10, as m1; numbers count on: the mature protein; IL-11Rα, human, D1-D3, as m8; m1 with m8; also called IL-11Rα_(D1-D3)/IL-11Δ10 binary complex; binary IL-11/IL-11Rα complex; source: formed from the purified proteins (IL-11Δ10 from E. coli, IL-11Rα_(D1-D3) from Sf21); in ITC by titrating the cytokine into IL-11Rα; not shown: His6, N-terminal, cleaved; His8, N-terminal, cleaved; …

Columns and labels:
[1] = molecular target: IL-11_(Δ10/PAIDY)/IL-11Rα_(D1-D3) binary complex (human) (UniProt P20809); assay: ITC; gp130 in the syringe titrated against the cytokine/IL-11Rα_(D1-D3) complex formed in the cell, 288 K, TBS pH 8.5, 1:1 interaction model, n = 3
[2] = molecular target: T1, IL-11_(Δ10/Mutein)/IL-11Rα_(D1-D3) binary complex (human, UniProt P20809 32-199; Q14626 23-319, W147A | ^58AMSAG^62 to ^58PAIDY^62); assay: as above; conditions: both partners purified
T1 construct: IL-11, human, IL-11Δ10 with W147A and 58-62 AMSAG to PAIDY, as m4; numbers count on: the mature protein; IL-11Rα, human, D1-D3, as m8; m4 with m8; source: formed from the purified proteins; in ITC by titrating the cytokine into IL-11Rα; not shown: His6, N-terminal, cleaved; His8, N-terminal, cleaved
T1 sequence 1: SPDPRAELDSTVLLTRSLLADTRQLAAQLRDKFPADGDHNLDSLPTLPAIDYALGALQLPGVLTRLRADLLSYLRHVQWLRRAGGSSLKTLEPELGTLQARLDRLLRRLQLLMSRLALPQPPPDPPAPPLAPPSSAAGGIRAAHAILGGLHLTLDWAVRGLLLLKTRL
T1 sequence 2: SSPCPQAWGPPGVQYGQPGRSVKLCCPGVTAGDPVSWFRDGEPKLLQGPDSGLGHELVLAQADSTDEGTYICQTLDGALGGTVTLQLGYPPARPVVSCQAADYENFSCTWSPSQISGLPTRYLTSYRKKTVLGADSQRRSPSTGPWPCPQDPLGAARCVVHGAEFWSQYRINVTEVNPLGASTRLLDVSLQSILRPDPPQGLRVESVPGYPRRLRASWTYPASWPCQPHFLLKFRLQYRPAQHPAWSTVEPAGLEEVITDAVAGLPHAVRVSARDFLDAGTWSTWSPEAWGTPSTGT

[3] = molecular target: B2; assay: as above; conditions: both partners purified
[4] = molecular target: T2, gp130EC (human, UniProt P40189 23-619, N-linked glycans (N21, N61, N135 seen in the structures)); assay: as above; conditions: both partners purified
T2 construct: Secreted with a honeybee-melittin signal peptide; D5-D6 are not in the deposited model 8DPT; also called complete extracellular domains of gp130; D1-D6 domains of gp130; not shown: His8, N-terminal, cleaved
T2 sequence (looked up): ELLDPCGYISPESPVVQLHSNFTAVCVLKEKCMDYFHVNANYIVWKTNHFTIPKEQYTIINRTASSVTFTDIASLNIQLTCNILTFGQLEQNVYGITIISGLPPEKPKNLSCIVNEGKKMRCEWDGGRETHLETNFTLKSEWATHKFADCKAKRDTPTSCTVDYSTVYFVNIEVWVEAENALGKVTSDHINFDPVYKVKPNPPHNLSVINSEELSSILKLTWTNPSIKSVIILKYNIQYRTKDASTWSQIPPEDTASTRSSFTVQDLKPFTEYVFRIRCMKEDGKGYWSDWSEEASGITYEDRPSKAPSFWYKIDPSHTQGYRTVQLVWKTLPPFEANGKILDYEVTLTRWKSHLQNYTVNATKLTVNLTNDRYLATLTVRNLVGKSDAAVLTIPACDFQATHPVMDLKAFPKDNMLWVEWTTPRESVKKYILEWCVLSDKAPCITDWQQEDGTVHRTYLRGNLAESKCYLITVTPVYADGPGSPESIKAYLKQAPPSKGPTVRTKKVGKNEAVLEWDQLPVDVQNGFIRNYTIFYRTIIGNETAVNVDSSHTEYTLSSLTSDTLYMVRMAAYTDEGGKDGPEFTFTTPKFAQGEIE

[5] = molecular target: T2, gp130EC; assay: cryo-EM structure; IL-11Δ10/IL-11Rα_(D1-D3)/gp130EC complex, 1.5 mg/mL, with 1–2 mM n-dodecyl β-D-maltoside, not size exclusion purified; C2 symmetry, 3.8 Å; conditions: both partners purified

B1: gp130_(D1-D3) (receptor, human)
chain: GELLDPCGYISPESPVVQLHSNFTAVCVLKEKCMDYFHVNANYIVWKTNHFTIPKEQYTIINRTASSVTFTDIASLNIQLTCNILTFGQLEQNVYGITIISGLPPEKPKNLSCIVNEGKKMRCEWDGGRETHLETNFTLKSEWATHKFADCKAKRDTPTSCTVDYSTVYFVNIEVWVEAENALGKVTSDHINFDPVYKVKPNPPHNLSVINSEELSSILKLTWTNPSIKSVIILKYNIQYRTKDASTWSQIPPEDTASTRSSFTVQDLKPFTEYVFRIRCMKEDGKGYWSDWSEEASGITYEDR
modifications: N-linked glycans (N21, N61, N135 seen in the structures)
notes: glycoprotein 130 (gp130), human, domains D1-D3; Secreted with a honeybee-melittin signal peptide; not shown: His8, N-terminal, cleaved
[1]
  Kd: 0.02 µM
[2]
  Kd: 0.055 µM
[3]
  Kd: 0.003 µM
  dH: -34 kJ/mol

## B2
[4]
  Kd: 0.004 µM

B3: IL-11Δ10 (ligand, human)
chain: SPDPRAELDSTVLLTRSLLADTRQLAAQLRDKFPADGDHNLDSLPTLAMSAGALGALQLPGVLTRLRADLLSYLRHVQWLRRAGGSSLKTLEPELGTLQARLDRLLRRLQLLMSRLALPQPPPDPPAPPLAPPSSAWGGIRAAHAILGGLHLTLDWAVRGLLLLKTRL
notes: numbers count on: the mature protein; also called N-terminally truncated form of IL-11; WT IL-11Δ10; not shown: His6, N-terminal, cleaved
[5]
  binding result: binds
